Test results reported in the nanobody polyreactivity screen of Harvey et al. (2022).

Experiment: yeast display, Sf9 membrane polyspecificity reagent, FACS + sequencing; frameworks hold sequencing errors
Outline: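 Galactose induction of a Saccharomyces cerevisiae BJ5465 synthetic nanobody display library ran 36–48 hours. The cells were then stained for 1 hour at 4 °C with 10% biotinylated, detergent-solubilized Sf9 membrane reagent, pulled down on streptavidin microbeads and FACS-sorted into low and high (top ~1%) gates on expression and reagent-binding fluorescence. Labels for polyreactivity follow the gate of origin.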
For “QVQLVESGGGLVQAGGSLRLSCAASGFIFYYYTMGWYRPAPGKERELVAAISRGGGSTYYADSVKGRFTISRDNAKNTVYLQMNSLKPEDTAVYYCALTDRRLGAHQGDYWGQGTQVTVSS”, the “polyreactivity (PSR sort gate)” value was “high polyreactivity”.
In the case of “QVQLVESGGGLVQAGGSLRLSCAASGFIIARNAMGWYRQAPGKERELVAAISASGGRTYYADSVKGRFTISRDNAKNTVYLKKNSLKPEDTAVYYCAAAVLRYALRFDYWGQGTQVTVSS”, the “polyreactivity (PSR sort gate)” value is reported as “high polyreactivity”.
In the case of “QVQLVESGGGLVQAGGSLRLSCAASGFIIGSYTMGWYRQAPGKERELVASITKRGGSTYYADSVKGRFTISRDNAKNTVYFQMNSLKPEDTAVYYCAATYWFSHRSRYDYWGQGTQVTVSS”, the “polyreactivity (PSR sort gate)” value is reported as “high polyreactivity”.
With “QVQLVESGGGLVQAGGSLRLSCAASGFIIHRYAMGWYRQAPGKERELVAVITSGGGSTYYADSVKGRFTISRDNAKNTVYLQMNSLKPEDTAVYYCAAYQPYNSRYRYDYWGQGTQVTVSS” the “polyreactivity (PSR sort gate)” value was “high polyreactivity”.
With “QVQLVESGGGLVQAGGSLRLSCAASGFIIKFYAMGWYRQAPGKERELVATITFSSGTTYYADSVKGRFTISRDNAKNTVYLQMNSLKPEDTAVYYCAASTLPAWPYDGPAGPRYDYWGQGTQVTVSS” the “polyreactivity (PSR sort gate)” value was “low polyreactivity”.
With “QVQLVESGGGLVQAGGSLRLSCAASGFIIQYYAMGWYRQAPGKERELVAVIRSGGSTYYADSVKGRFTISRDNAKNTVFFQMNSLKPEDTAVYYCIARRTYLDRYNYWGQGTQVTVSS” the “polyreactivity (PSR sort gate)” value was “high polyreactivity”.
With “QVQLVESGGGLVQAGGSLRLSCAASGFIIRSYAMGWYRQAPGKERELLAAISSRGGSTYYADSVKGRFTISRDNANNTVYLQINSLKPEDTAVYYCAADWKSKRTDKYDSWGQGTQVTVSS” the “polyreactivity (PSR sort gate)” value was “high polyreactivity”.
With “QVQLVESGGGLVQAGGSLRLSCAASGFIIRTYAMGWYRQAPGKERELVAAITGRGGTTYYADSVKGRFTISRDNAKNTVDLQMNSLKPEDTAVYYCAARSRDYNYNPYDYWGQGTQVTVSS” the “polyreactivity (PSR sort gate)” value was “high polyreactivity”.
For “QVQLVESGGGLVQAGGSLRLSCAASGFIITSNAMGWYRQAPGKERELVAAITWSGGRTYYADSVKGRFTISRDNAKNTVYLQMNSLKPEDTAVYYCAAGYYKGFTLVRVIFDYWGHGTQVTVSS”, the “polyreactivity (PSR sort gate)” value was “low polyreactivity”.
With “QVQLVESGGGLVQAGGSLRLSCAASGFIITTYAMGWYRQAPGKERELVAGISSSGGRTYADSVKGRFTISRDNAKNTVYLQMNSLKPEDTAVYYCAREQWRTLVQTDKYKYDYWGQGTQVTVSS” the “polyreactivity (PSR sort gate)” value was “high polyreactivity”.
In the case of “QVQLVESGGGLVQAGGSLRLSCAASGFIIWYSAMGWYRQAPGKERELVAAIRSGGSTYYADSVKGRFTISRDNAMNTVYLQMNSLKPEDTAVYYCAAGKNVYYFSRSKYGYDYWGQGTQVTVSS”, the “polyreactivity (PSR sort gate)” value is reported as “high polyreactivity”.
In the case of “QVQLVESGGGLVQAGGSLRLSCAASGFIIYGYVMGWYRQAPGKERELVAAINSSSGRTYYADSVKGRFTISRDNAKNTVYLQMNSLKPEDTAVYYCAAYYYGSYDGTPYDYRGQGTQVTVSS”, the “polyreactivity (PSR sort gate)” value is reported as “low polyreactivity”.
With “QVQLVESGGGLVQAGGSLRLSCAASGFIIYRYAMGWYRQAPGKEWELVAAISKRGGSTYYADSVKGRFTISRDNAKNTVYLQMNSLKPEDTAVYYCAANRSYVDSTSFGKAYGYWGQGTQVTVSS” the “polyreactivity (PSR sort gate)” value was “high polyreactivity”.
For “QVQLVESGGGLVQAGGSLRLSCAASGFILARYAMGWYRQAPGKERELVAVISSGGSSTFYADSVKGRFTISRDNAKNTVYLQMKSLKPEDTAVYYCAARYKSSKKVGFDYWGQGTQVTVSS”, the “polyreactivity (PSR sort gate)” value was “high polyreactivity”.
In the case of “QVQLVESGGGLVQAGGSLRLSCAASGFILDNYAMGWYRQAPGKERELVAAISGSGGSTYYADSVKGRFTISRDNAKNTVYLQMNSLKPEDTAVYYCNRDRLLRQYDYWGQGTQVTVSS”, the “polyreactivity (PSR sort gate)” value is reported as “high polyreactivity”.
In the case of “QVQLVESGGGLVQAGGSLRLSCAASGFILERYAMGWYRQAPGKERELVAAISSVGNTNYADSVKGRFTITRDNAKNTVYLQMNSLKPEDTAVYYCAAEGAFPIYDYWGQGTQVTVSS”, the “polyreactivity (PSR sort gate)” value is reported as “low polyreactivity”.
In the case of “QVQLVESGGGLVQAGGSLRLSCAASGFILFPYAMGWYRQAPGKERELVAAIRSDDTTYYADSVKGRFTISRDNAKNTVYLQMNSLKPEDTAVYYCNAARTRWATGYDYWGQGTQVTVSS”, the “polyreactivity (PSR sort gate)” value is reported as “low polyreactivity”.
In the case of “QVQLVESGGGLVQAGGSLRLSCAASGFILGGYAMGWYRQAPGKERELVAAISWSSGSTYYADSVKGRFTISRDNAKNTVYLQMNSLKPEDTAVYYCAAVGAYDYWGQGTQVSVSS”, the “polyreactivity (PSR sort gate)” value is reported as “low polyreactivity”.
With “QVQLVESGGGLVQAGGSLRLSCAASGFILGHNAMGWYRQAPGKERELVSAITWRGRTYYADSVKGRFTISRDNAKNTVYLHMNSLKPEDTAVYYCASDTKFCYGYWGQGTQVTVSS” the “polyreactivity (PSR sort gate)” value was “high polyreactivity”.
With “QVQLVESGGGLVQAGGSLRLSCAASGFILGLNALGWYRHAPGKAWEFVADISWSGDSTYYADSVKGRFTISRDNAKNTVYLQMNSRKPEDTAVYYCPAVWYTSRQKYDYWGQGTQGTVSS” the “polyreactivity (PSR sort gate)” value was “low polyreactivity”.
With “QVQLVESGGGLVQAGGSLRLSCAASGFILGSNAMGWYRQAPGKERELVAAISRSGGSTYYADSVKGRFTISRDNAKNTVYLQMNSLKPEDTAVYYCNRVASVRARDYDYWGQGTQVTVSS” the “polyreactivity (PSR sort gate)” value was “high polyreactivity”.
In the case of “QVQLVESGGGLVQAGGSLRLSCAASGFILGSNVMGWYRQAPGKERELVAAISYSGGSTYYADSVKGRFTISRDNAKNTVYLQMNSLKPEDTAVYYCARRLTREYDYWGQGSQVTVSS”, the “polyreactivity (PSR sort gate)” value is reported as “low polyreactivity”.
In the case of “QVQLVESGGGLVQAGGSLRLSCAASGFILGYYAMGWYRQAPGKERELVAAISWNGGRTYYADSVKGRFTISRDNAKNTVYLQMNSLKPEDTAVYYCAVVATVIPWPYDYWGQGTQVTVSS”, the “polyreactivity (PSR sort gate)” value is reported as “high polyreactivity”.
For “QVQLVESGGGLVQAGGSLRLSCAASGFILIQYAMGWYRQAPGKERELVAAITWSDTSTNYADSVKGRFTISRDNAKNTVYLQMNSLKPEDTAVYYCAAYPVRYYNQYDYWGQGTQVTVSS”, the “polyreactivity (PSR sort gate)” value was “low polyreactivity”.
With “QVQLVESGGGLVQAGGSLRLSCAASGFILPHYTMGWYRQAPGKERELVAAITSGVSTYYADSVKGRFTISRDNAKNTVYLQMNSLKPEDTAVYYCNALATYIGYKYDYWGQGTQVTVSS” the “polyreactivity (PSR sort gate)” value was “low polyreactivity”.
In the case of “QVQLVESGGGLVQAGGSLRLSCAASGFILPIYAMGWYRQAPGKEREFVAAITWTGGSTYYADSVKGRFTISRDNANNTVYLQMNSLKPEDTAVYYCNAEGRSYYYIIYDFWGQGTQVTVSS”, the “polyreactivity (PSR sort gate)” value is reported as “high polyreactivity”.
For “QVQLVESGGGLVQAGGSLRLSCAASGFILPNYAMGWYRQAPGKERELVAASTYIGGSTYYADSVKGRFTISRDNAKHTVYLQMNSLKPEDTAVYYCAKYWLGYTKYDYWGQGTQVTVSS”, the “polyreactivity (PSR sort gate)” value was “low polyreactivity”.
With “QVQLVESGGGLVQAGGSLRLSCAASGFILPNYAMGWYRQATGKERELVDAITYIGGSTYYADSVKGRFTISRDNAKNTVYLHMNSLKPEDTAVYYCAKYWLGYTKFDYWGQGTQVTVSS” the “polyreactivity (PSR sort gate)” value was “low polyreactivity”.
In the case of “QVQLVESGGGLVQAGGSLRLSCAASGFILPVYAMGWYRQAPGTERELVAAISSGGSTNYADSVKGRFTISRDNAKNTVYLQMNSLKPEDTEVYYCNKVDWYFGGYKYDYWGQGTQVTVSS”, the “polyreactivity (PSR sort gate)” value is reported as “low polyreactivity”.
For “QVQLVESGGGLVQAGGSLRLSCAASGFILRAYAIGWYRQAPGKERELVAAITSATSTNYADSVKGRFTISRDNAKNTVYLQMNSLKPEDTAVYYCAADGGGGEFSYDSWGQGTQVTVSS”, the “polyreactivity (PSR sort gate)” value was “low polyreactivity”.
For “QVQLVESGGGLVQAGGSLRLSCAASGFILRYNAMGWYRQAPGKEREFVAAITRGATTTYADSVKGRFTISRDNAKNTVYLQMNRLKPEDTAVYYCAKRYHGYISQGQLWERIYDYWGQGTQVTVSS”, the “polyreactivity (PSR sort gate)” value was “low polyreactivity”.
For “QVQLVESGGGLVQAGGSLRLSCAASGFILSHYVMGWYRPAPGKERELVATIRNVGSTKYADSVKGRFTISRDNAKNTVYLQMNSLKPEDTAVYYCNARRWEGYYEFNYWGQGTQVTVSS”, the “polyreactivity (PSR sort gate)” value was “low polyreactivity”.
In the case of “QVQLVESGGGLVQAGGSLRLSCAASGFILYDNTMGWYRQAPGKEREFVAAIRDSGGSTYYADSVKGRFTISRDNAKNTVYLQMNSLKPEDTAVYYCNTYGSGTHSTGYDYWGQGTQVTVSS”, the “polyreactivity (PSR sort gate)” value is reported as “low polyreactivity”.
With “QVQLVESGGGLVQAGGSLRLSCAASGFILYGNTMGWYRQAPGKERELVAAISWSGGNTRYADSVKARFTISRDNAKNTVYLQMNSLQPEDTAVYYCAAYSNYVWSIRRDYWGQGTQVTVSS” the “polyreactivity (PSR sort gate)” value was “low polyreactivity”.
With “QVQLVESGGGLVQAGGSLRLSCAASGFILYRNAMGWYRQAPGKERELVAAISRNGGSTYYADSVKGRFTISRDNAKNTFYLQMNSLKPEDTAVYYCAARTVGRKAGFDYWGQGTQVTVSS” the “polyreactivity (PSR sort gate)” value was “high polyreactivity”.
With “QVQLVESGGGLVQAGGSLRLSCAASGFILYYYAMGWYRQAPGKERELVASISRRGGSTYYADSVKGRFTISRDNAKHTVYLQMNSLKPEDTAVYYCNAYSTYIKYDYWGHGTQVTVSS” the “polyreactivity (PSR sort gate)” value was “high polyreactivity”.
In the case of “QVQLVESGGGLVQAGGSLRLSCAASGFIQPYNTMGWYRQAPGKEREFVAAINYSGGRTYYADSVKGRFTISRDNAKNTVYLQMNRLKPEDTAVYYCAAARYPYRYKYNYWGQGTQVTVSS”, the “polyreactivity (PSR sort gate)” value is reported as “high polyreactivity”.
For “QVQLVESGGGLVQAGGSLRLSCAASGFISARYAMGWYRQAPGKERELVAGISGGGGRTYYADSVKGRFTISRDNAKNTVYLQMNSLKPEDTAVYYCASTQQSRDRRFNYWGQGTQVTVSS”, the “polyreactivity (PSR sort gate)” value was “high polyreactivity”.
In the case of “QVQLVESGGGLVQAGGSLRLSCAASGFISFGNGMGWYRQAPGKERELVAAITRRGGSTYYADSVKGLFTISRDNAKNTVYLQMNSLKPEDTAVYYCDARYLGSTSTNRPPMDYWGQGTQVTVSS”, the “polyreactivity (PSR sort gate)” value is reported as “high polyreactivity”.
For “QVQLVESGGGLVQAGGSLRLSCAASGFISGGNAMGWYRQAPGKEREFVAAIDNTGSTYYADSVKGRFTISRDNAKNTVYLQMNSLKPEDTAVYYCNAEVSEDYVDNDYWGQGTQVTVSS”, the “polyreactivity (PSR sort gate)” value was “low polyreactivity”.
For “QVQLVESGGGLVQAGGSLRLSCAASGFISGSYAMGWYRQAPGKDREFVASISLSDGSTTYADSVKGRFTISRDTAKNPVYLQMNSLKPEDTAVYYCAVQFYYPFTGGTIYEYWGQGTQVTVAS”, the “polyreactivity (PSR sort gate)” value was “low polyreactivity”.
